Usually Kd stands for the equilibrium constant for the complex coming apart. A high value points to a looser complex. Usually IC50 stands for the point on the concentration scale where inhibition reaches its midpoint.

Square brackets hold non-standard residues; d marks the D form. Pmp = N[C@@H](Cc1ccc(CP(=O)(O)O)cc1)C(=O)O; pY = N[C@@H](Cc1ccc(OP(=O)(O)O)cc1)C(=O)O; 2Nal = N[C@@H](Cc1ccc2ccccc2c1)C(=O)O

In assay [1] the target is T1, Grb2 SH2 domain (UniProt P62993 60-152, limits assumed).
T1 construct: domain: SH2 domain
T1 sequence (P62993 60-152 limits assumed): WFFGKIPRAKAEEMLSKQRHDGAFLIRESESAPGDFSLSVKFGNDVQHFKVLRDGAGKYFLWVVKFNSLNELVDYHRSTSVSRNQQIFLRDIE
The assay can be described thus: fluorescence anisotropy, direct binding of the FAM-labeled ligand to the Grb2 SH2 domain.

Assay [2] addresses T2, Kelch-like ECH-associated protein-1 (Keap1) (UniProt Q14145 321-609, limits assumed). The assay can be described thus: fluorescence anisotropy competition assay, displacement of the fluorescent Nrf2 peptide from Keap1. On the procedure:
(§1) The percentage of inhibition was calculated from the fluorescence anisotropy decrease by using equation
(§2) and plotted against the inhibitor concentration.
(In general: In fluorescence polarisation assays a small probe gives low polarisation when free and higher when bound to something large.)

In assay [3] the target is T2, Kelch-like ECH-associated protein-1 …. Description: fluorescence anisotropy competition assay; reference BH15. The protocol: as §1, §2
The target of assay [4] is T1, Grb2 SH2 domain. The assay can be described thus: FP-based competition assay, unlabeled peptide against the FAM-labeled reporter ligand on the Grb2 SH2 domain.
In assay [5] the target is T1, Grb2 SH2 domain. The assay can be described thus: binding to the Grb2 SH2 domain; reference BH23.
Assay [6] deals with T1, Grb2 SH2 domain. Description: binding to the Grb2 SH2 domain; assay not named, presumably the same FP competition assay.
Assay [7] addresses T2, Kelch-like ECH-associated protein-1 …. The assay can be described thus: fluorescence anisotropy competition assay; reference peptide not named (34-fold matches BH17, […] nM). The protocol:
as §1, §2

Assay [8] has the same target. The assay can be described thus: fluorescence anisotropy competition assay; reference BH17. The protocol: as §1, §2
For assay [9] the target is unchanged. The assay can be described thus: fluorescence anisotropy competition assay; reference BH13. On the procedure: as §1, §2

T2 sequence (Q14145 321-609 limits assumed): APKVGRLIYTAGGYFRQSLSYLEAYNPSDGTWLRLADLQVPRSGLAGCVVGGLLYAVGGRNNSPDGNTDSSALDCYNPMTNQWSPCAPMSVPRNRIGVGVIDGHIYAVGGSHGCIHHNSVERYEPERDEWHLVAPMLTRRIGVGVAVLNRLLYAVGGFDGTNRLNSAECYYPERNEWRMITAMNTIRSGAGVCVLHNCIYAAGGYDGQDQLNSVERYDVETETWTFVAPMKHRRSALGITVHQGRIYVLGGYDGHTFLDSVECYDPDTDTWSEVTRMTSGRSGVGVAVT

In the assay with Grb2 SH2 domain [1], cyclo(AApYVNFFQ)-β-Ala-K(FAM) (peptide) returned a Kd of 92 nM. In other words, the double-digit nanomolar range.

B1: BH13 (peptide)
peptide: cyclo(FF[2Nal][dR][dP]PRRFQLDPETGE)
SMILES: CC(C)C[C@@H]1NC(=O)[C@H](CCC(N)=O)NC(=O)[C@H](Cc2ccccc2)NC(=O)[C@H](CCCNC(=N)N)NC(=O)[C@H](CCCNC(=N)N)NC(=O)[C@@H]2CCCN2C(=O)[C@H]2CCCN2C(=O)[C@@H](CCCNC(=N)N)NC(=O)[C@H](Cc2ccc3ccccc3c2)NC(=O)[C@H](Cc2ccccc2)NC(=O)[C@H](Cc2ccccc2)NC(=O)[C@H](CCC(=O)O)NC(=O)CNC(=O)[C@H]([C@@H](C)O)NC(=O)[C@H](CCC(=O)O)NC(=O)[C@@H]2CCCN2C(=O)[C@H](CC(=O)O)NC1=O
notes: The underlining is not visible, so the entry may be only part of the peptide; also called cyclo(F-F-Φ-r-p-P-R-R-F-Q-L-D-P-E-T-G-E)
B1 had an IC50 in assay [2] of 153 nM. This lies in the sub-micromolar range.

B2: BH16 (peptide)
peptide: cyclo(FF[2Nal][dR][dP]PRRFLNAETGE)
SMILES: CC(C)C[C@@H]1NC(=O)[C@H](Cc2ccccc2)NC(=O)[C@H](CCCNC(=N)N)NC(=O)[C@H](CCCNC(=N)N)NC(=O)[C@@H]2CCCN2C(=O)[C@H]2CCCN2C(=O)[C@@H](CCCNC(=N)N)NC(=O)[C@H](Cc2ccc3ccccc3c2)NC(=O)[C@H](Cc2ccccc2)NC(=O)[C@H](Cc2ccccc2)NC(=O)[C@H](CCC(=O)O)NC(=O)CNC(=O)[C@H]([C@@H](C)O)NC(=O)[C@H](CCC(=O)O)NC(=O)[C@H](C)NC(=O)[C@H](CC(N)=O)NC1=O
notes: also called cyclo(F-F-Φ-r-p-P-R-R-F-L-N-A-E-T-G-E)
Molecule B2 came in with a half-inhibitory concentration (IC50) in [2] of 1470 nM. In addition, the “fold decrease in affinity vs BH15” value in assay [3] is around 10 fold.

B3: BH25 (peptide)
peptide: cyclo(FA[dA][dP]PRR[pY]VN)
SMILES: CC(C)[C@@H]1NC(=O)[C@H](Cc2ccc(OP(=O)(O)O)cc2)NC(=O)[C@H](CCCNC(=N)N)NC(=O)[C@H](CCCNC(=N)N)NC(=O)[C@@H]2CCCN2C(=O)[C@H]2CCCN2C(=O)[C@@H](C)NC(=O)[C@H](C)NC(=O)[C@H](Cc2ccccc2)NC(=O)[C@H](CC(N)=O)NC1=O
notes: Control peptide: the Nal-arg of BH23 is replaced with Ala-ala; also called cyclo[F-A-a-p-P-R-R-pY-V-N); negative control peptide BH25
B3 yielded an IC50 with Grb2 SH2 domain [4] of 100 nM.

B4: BH23 (peptide)
peptide: cyclo(F[2Nal][dR][dP]PRR[pY]VN)
notes: also called cyclo(pY-V-N-F-Φ-r-p-P-R-R); cyclo[F-Φ-r-p-P-R-R-pY-V-N)
With B4, in the assay with Grb2 SH2 domain [4], the IC50 is 400 nM.

B5: BH26 (peptide)
peptide: cyclo(F[2Nal][dR][dP]PRR[Pmp]VN)
SMILES: CC(C)[C@@H]1NC(=O)[C@H](Cc2ccc(CP(=O)(O)O)cc2)NC(=O)[C@H](CCCNC(=N)N)NC(=O)[C@H](CCCNC(=N)N)NC(=O)[C@@H]2CCCN2C(=O)[C@H]2CCCN2C(=O)[C@@H](CCCNC(=N)N)NC(=O)[C@H](Cc2ccc3ccccc3c2)NC(=O)[C@H](Cc2ccccc2)NC(=O)[C@H](CC(N)=O)NC1=O
Take B5: the “fold less potent than BH23” value with Grb2 SH2 domain [5] is around 3 fold. In the assay with Grb2 SH2 domain [6], the IC50 was 1370 nM.

B6: BH19 (peptide)
peptide: cyclo(F[2Nal][dR][dP]PRRFNAETGE)
SMILES: C[C@@H]1NC(=O)[C@H](CC(N)=O)NC(=O)[C@H](Cc2ccccc2)NC(=O)[C@H](CCCNC(=N)N)NC(=O)[C@H](CCCNC(=N)N)NC(=O)[C@@H]2CCCN2C(=O)[C@H]2CCCN2C(=O)[C@@H](CCCNC(=N)N)NC(=O)[C@H](Cc2ccc3ccccc3c2)NC(=O)[C@H](Cc2ccccc2)NC(=O)[C@H](CCC(=O)O)NC(=O)CNC(=O)[C@H]([C@@H](C)O)NC(=O)[C@H](CCC(=O)O)NC1=O
notes: also called cyclo(F-Φ-r-p-P-R-R-F-N-A-E-T-G-E)
Take B6: the “fold reduction in inhibition potency” value in assay [7] stood at 34 fold. The molecule further had an IC50 in assay [2] of 5540 nM.

B7: BH18 (peptide)
peptide: cyclo(F[2Nal][dR][dP]PRRFLNAETGE)
SMILES: CC(C)C[C@@H]1NC(=O)[C@H](Cc2ccccc2)NC(=O)[C@H](CCCNC(=N)N)NC(=O)[C@H](CCCNC(=N)N)NC(=O)[C@@H]2CCCN2C(=O)[C@H]2CCCN2C(=O)[C@@H](CCCNC(=N)N)NC(=O)[C@H](Cc2ccc3ccccc3c2)NC(=O)[C@H](Cc2ccccc2)NC(=O)[C@H](CCC(=O)O)NC(=O)CNC(=O)[C@H]([C@@H](C)O)NC(=O)[C@H](CCC(=O)O)NC(=O)[C@H](C)NC(=O)[C@H](CC(N)=O)NC1=O
notes: also called cyclo(F-Φ-r-p-P-R-R-F-L-N-A-E-T-G-E)
As to B7, the “fold decrease in affinity vs BH17” value in assay [8] is around 10 fold. The IC50 in [2] amounted to 1400 nM.

B8: BH14 (peptide)
peptide: cyclo(FF[2Nal][dR][dP]PRRFQLNAETGE)
SMILES: CC(C)C[C@@H]1NC(=O)[C@H](CCC(N)=O)NC(=O)[C@H](Cc2ccccc2)NC(=O)[C@H](CCCNC(=N)N)NC(=O)[C@H](CCCNC(=N)N)NC(=O)[C@@H]2CCCN2C(=O)[C@H]2CCCN2C(=O)[C@@H](CCCNC(=N)N)NC(=O)[C@H](Cc2ccc3ccccc3c2)NC(=O)[C@H](Cc2ccccc2)NC(=O)[C@H](Cc2ccccc2)NC(=O)[C@H](CCC(=O)O)NC(=O)CNC(=O)[C@H]([C@@H](C)O)NC(=O)[C@H](CCC(=O)O)NC(=O)[C@H](C)NC(=O)[C@H](CC(N)=O)NC1=O
notes: also called cyclo(F-F-Φ-r-p-P-R-R-F-Q-L-N-A-E-T-G-E)
B8 yielded an IC50 in assay [2] of 1400 nM. Further, in assay [9], the “fold decrease in affinity vs BH13” value is around 10 fold.

The record behind these values is patent US20190284240A1 (OHIO STATE INNOVATION FOUNDATION, published 2019).
